Measured values taken from patent US9101618B2, “Method for treating and/or preventing neurodegenerative disease by adiponectin receptor agonist” (TOKYO METROPOLITAN INSTITUTE OF MEDICAL SCIENCE, priority 2011, dated 2015).

Assays:
[1] = target: T1, human α (alpha)-synuclein recombinant protein (Homo sapiens, UniProt P37840); test: Protein-protein interaction of α-synuclein and adiponectin in test tube (western blotting); assay type: binding; settings: 48 hours, 37° C.
T1 construct: made in house
Procedure: Human adiponectin recombinant protein (ProSpec, IWAI CHEMICALS COMPANY LTD.) 0.5 μg and human α (alpha)-synuclein recombinant protein (Hashimoto et al., Brain Res. 799:301 (1998)) 1.0 μg were incubated for 48 hours in 100 mM sodium acetate solution at 37° C., 500 rpm (Thermomixer, Eppendorf Co., Ltd.). Later, an analysis via western blotting was performed in accordance with procedures similar to those in example 1 through example 6. Each sample was dissolved in 1× sample buffer without 2ME, and heated at 95° C. for 10 min. With regard to a control experiment, incubation was performed at room temperature. Particularly, instead of α (alpha)-synuclein, BSA (1.0 μg) was incubated with adiponectin.

[2] = test system: B103 neuroblastoma cells (α (alpha)S); test: Adiponectin addition (1): α-synuclein aggregation (western blotting of fractions); assay type: cell-based, rat; settings: 1 μg/mL, 24 hours, serum-free medium
Procedure: The B103 neuroblastoma cells (α (alpha)S) and the B103 neuroblastoma cells (vector) were prepared and cultured in accordance with the procedures described in example 3. The B103 neuroblastoma cells (α (alpha)S) and the B103 neuroblastoma cells (vector) were inoculated on the 6-well plate and cultured to a state of about 80-90% confluence. After washing with PBS, the aforementioned cells were further cultured for 24 hours in a test medium prepared by adding recombinant human adiponectin (1 μg/mL, trimer, PROSPEC) to a serum-free medium. As a control, there was used a control medium prepared by adding thereto PBS instead of recombinant human adiponectin. After culturing, there were prepared the TBS soluble fraction, the SDS soluble fraction and the formic acid soluble fraction in accordance with the procedures described in example 1. Further, western blotting was performed in accordance with the procedures described in example 1. In order to evaluate α (alpha)-synuclein aggregation, an anti-α (alpha)-synuclein mouse monoclonal antibody (syn-1, Nippon Becton Dickinson Company, Ltd) was used as a primary antibody when performing western blotting, the anti-α (alpha)-synuclein mouse monoclonal antibody being diluted appropriately before use. […]

p38 MAPK = test: Adiponectin addition (2): signal transduction, phospho-p38 MAPK western blotting; assay type: cell-based, rat; settings: 1 μg/mL, 0, 10 and 30 min
Procedure: (§1) The B103 neuroblastoma cells (α (alpha)S) and the B103 neuroblastoma cells (vector) were inoculated on a 5 cm dish and cultured to a state of about 80-90% confluence. Later, the aforementioned cells were washed with PBS, and then cultured in a serum-free medium for four hours. After washing with PBS, the cells were then cultured in a test medium (adiponectin-added group) prepared by adding recombinant human adiponectin (1_μg/mL, trimer, PROSPEC) to a serum-free medium. As a control, there was used a control medium (adiponectin non-added group) prepared by adding thereto PBS instead of recombinant human adiponectin. A culture time was 0, 10 and 30 min when evaluating signal transduction, 0, 1 and 2 hour(s) when evaluating tau phosphorylation. The cells collected were lysed with a cell lysis solution (1% TritonX-100, 1% Nonidet P-40, 50 mM HEPES, 150 mM NaCl, 10% glycerol, 1.5 mM MgCl2, 1 mM EGTA, 100_mM sodium fluoride, a protease inhibitor (NACALAI TESQUE, INC.)). Supernatants were collected after performing centrifugation at 100,000×g for 30 min, and were used as surfactant soluble fractions when performing western blotting. Here, western blotting was performed in accordance with the procedures described in example 1. […]

GSK-3β (beta) [3] = test: Adiponectin addition (2): signal transduction, phospho-GSK-3β western blotting; assay type: cell-based, rat; settings: 1 μg/mL, 0, 10 and 30 min
Procedure: as §1

GSK-3β (beta) [4] = test: Addition of p38 MAPK inhibitor and AMPK inhibitor: phospho-GSK-3β western blotting; assay type: cell-based, rat; settings: 1 μg/mL adiponectin 30 min, no inhibitor
Procedure: The aforementioned B103 neuroblastoma cells (α (alpha)S) were inoculated on the 6-well plate and cultured to a state of about 80-90% confluence. After washing with PBS, the aforementioned cells were further cultured for 10 min in an inhibition test medium prepared by adding either 5 μM p38 MAPK inhibitor (SB203580, Promega) or 5 μM AMPK inhibitor (Compound C, Calbiochem) to a serum-free medium. As a control, DMSO was added to a serum-free medium instead of the aforementioned inhibitors. Later, either recombinant human adiponectin (1 μg/mL, trimer, PROSPEC) or PBS was added so as to culture the cells for 30 min. The cells collected were then lysed with the aforementioned cell lysis solution. Supernatants were collected after performing centrifugation at 100,000×g for 30 min, and then subjected to western blotting. Here, western blotting was performed in accordance with the procedures described in example 1.
When performing western blotting to evaluate signal transduction pathways, the anti-phospho-GSK-3β (beta) (Ser9) antibody (D85E12, Cell Signaling Technology), the anti-GSK-3β (beta) antibody (BD Biosciences) and the anti-β (beta)-actin mouse monoclonal antibody (C-15, Sigma-Aldrich Japan Inc.) were used as primary antibodies after being appropriately diluted. Further, the HRP labeled anti-mouse IgG antibody (DAKO) was used as a secondary antibody after being appropriately diluted.

dimer of adiponectin ([1]; 0.5 μg adiponectin incubated with 1.0 μg α-synuclein): further increased
adiponectin aggregation ([1]; in the presence of α-synuclein, densitometer values of aggregate range): significantly promoted
B1: adiponectin: recombinant human adiponectin (trimer, PROSPEC) added to serum-free medium at 1 μg/mL (protein, UniProt Q15848 19-244, looked up)
Adiponectin: ETTTQGPGVLLPLPKGACTGWMAGIPGHPGHNGAPGRDGRDGTPGEKGEKGDPGLIGPKGDIGETGVPGAEGPRGFPGIQGRKGEPGEGAYVYRSAFSVGLETYVTIPNMPIRFTKIFYNQQNHYDGSTGKFHCNIPGLYYFAYHITVYMKDVKVSLFKKDKAMLFTYDQYQENNVDQASGSVLLHLEVGDQVWLQVYGEGERNGLYADNDNDSTFTGFLLYHDTN
α-synuclein in culture supernatant [2]: decreased
α-synuclein in the formic acid soluble fraction [2]: decreased
phosphorylation of p38 MAPK (p38 MAPK): promoted
phosphorylation of GSK-3β (GSK-3β (beta) [3]): promoted
phosphorylated GSK-3β in surfactant soluble fraction (GSK-3β (beta) [4]): detected
